These results are taken from PMC11096400 (Scientific Reports, 2024).

Substrate in this series: N[C@@H](CCC(=O)O)C(=O)O
In words: purified protein. Conditions: 0.1-1.0 mM NADP, 50 mM Tris, pH 7.5, 293 K, 20.0 °C.

A word on the Km: it is the substrate concentration at which the rate is half of its maximum. Broadly, the kcat is the number of substrate molecules converted per active site and unit of time at saturation.

B1: glutamate dehydrogenase (GDH) (Thermococcus profundus) (protein)
chain: MVEIDPFEMAVKQLERAAQYMDISEEALEWLKKPMRIVEVSVPIEMDDGSVKVFTGFRVQHNWARGPTKGGIRWHPAETLSTVKALATWMTWKVAVVDLPYGGGKGGIIVNPKELSEREQERLARAYIRAVYDVIGPWTDIPAPDVYTNPKIMGWMMDEYETIMRRKGPAFGVITGKPLSIGGSLGRGTATAQGAIFTIREAAKALGIDLKGKKIAVQGYGNAGYYTAKLAKEQLGMTVVAVSDSRGGIYNPDGLDPDEVLKWKREHGSVKDFPGATNITNEELLELEVDVLAPAAIEEVITEKNADNIKAKIVAEVANGPVTPEADDILREKGILQIPDFLCNAGGVTVSYFEWVQNINGYYWTEEEVREKLDKKMTKAFWEVYNTHKDKNIHMRDAAYVVAVSRVYQAMKDRGWVKK
Turning to B1, the Km is 2380 ± 24 µM and the kcat stood at 2.78 ± 0.00 s⁻¹.
